Experimental findings from patent publication US20240140995A1 (ROCHE DIAGNOSTICS OPERATIONS, published 2024) are described below.

First the molecules themselves.
B1: E. coli ColE-7 (other)
chain: ESKRNKPGKATGKGKPVNNKWLNNAGKDLGSPVPDRIANKLRDKEFKSFDDFRKKFWEEVSKDPELSKQFSRNNNDRMKVGKAPKTRTQDVSGKRTSFELHHEKPISQNGGVYDMDNISVVTPKRHIDIHRGK
B2: E. coli IM-7, singly biotinylated (other)
chain: MELKNSISDYTEAEFVQLLKEIEKENVAATDDVLDVLLEHFVKITEHPDGTDLIYYPSDNRDDSPEGIVKEIKEWRAANGKPGFKQG

The target in test [1] is GthIM (Geobacillus thermoglucosidasius immunity protein, C18A, engineered), singly biotinylated (Geobacillus thermoglucosidasius). The test is described as follows: SPR Biacore T200, 37 C, single cycle kinetics; biotinylated immunity protein on streptavidin sensor, colicin analyte 1.1-90 nM. In general terms: Surface plasmon resonance follows binding to a sensor surface in real time, without labels.

Test [2] has as its target B1. The test is described as follows: SPR Biacore T200, 37 C, single cycle kinetics.
In test [3] the target is B1. The test is described as follows: SPR Biacore T200, 37 C, single cycle kinetics; biotinylated immunity protein on streptavidin sensor, colicin analyte 1.1-90 nM.

Where only a bound is given, the exact number is not on record here.

With B1, in test [1], the affinity, expressed as Kd, was 13 nM; the koff (usually the rate constant with which the complex falls apart) is 0.1 s⁻¹; the kon (in general, the second-order rate constant of association) was 1e+07 M⁻¹ s⁻¹.
Turning to B2, in the test with E. coli ColE-7 [2], the “complex half-life t/2-diss” value is greater than 19.2 h. Also, in the test with E. coli ColE-7 [3], the equilibrium dissociation constant (Kd) (in general, the equilibrium constant for the complex coming apart) was less than 0.0057 nM; the “MR (Molar Ratio, binding stoichiometry)” value came to 1.2; the koff is less than 1e-05 s⁻¹; the kon turned out to be 1.8e+06 M⁻¹ s⁻¹.
